Substrate: O=CC(O)COP(=O)(O)O
Test: purified protein
Format: biochemical, Saccharomyces cerevisiae
Conditions: 1 mM ribose-5-phosphate, 10 mM ammonium sulfate (20 mM NH4), 50 mM Tris-HCl pH 8.0, 37 °C, 85 µM Snz3p, no glutaminase subunit, racemic D/L substrate

B1: Snz3p (Saccharomyces cerevisiae S288C) (protein)
chain: MSEFKVKTGLAQMLKGGVIMDVVTPEQAIIAERAGACAVMALERIPADMRKSGQVCRMSDPRMIKEIMEAVSIPVMAKVRIGHFVEAQILEELQVDYIDESEVLTPADWTHHIEKHNFKVPFVCGAKDLGEALRRINEGAAMIRTKGEAGTGDVSEAVKHITKIKAEIQQYKENLKTESDFAAKATELRVPVDLLKTTLSEGKLPVVNFAAGGVATPADAALLMQLGCEGVFVGSGIFKSSDPEKLACAIVEATTHYDNPAKLLQVSSDLGDLMGGISIQSINEAGGKNGARLSEIGW
notes: full-length SNZ3 in pTEV5 (NheI/NcoI), His6 tag removed with rTEV, expressed in E. coli BL21-AI; assayed without Sno glutaminase subunit
B1 was tested. Which Km did it give?
The Km was 290 ± 30 µM.

What about the kcat of the same protein?
Its kcat is 0.0007 s⁻¹.

Reference: PMC6385983, “SNZ3 Encodes a PLP Synthase Involved in Thiamine Synthesis in Saccharomyces cerevisiae” (G3: Genes|Genomes|Genetics, 2018)
